B1: BBSome complex member BBS4 (Homo sapiens), Q96RK4 (parent)
chain: MAEERVATRTQFPVSTESQKPRQKKAPEFPILEKQNWLIHLHYIRKDYEACKAVIKEQLQETQGLCEYAIYVQALIFRLEGNIQESLELFQTCAVLSPQSADNLKQVARSLFLLGKHKAAIEVYNEAAKLNQKDWEISHNLGVCYIYLKQFNKAQDQLHNALNLNRHDLTYIMLGKIHLLEGDLDKAIEVYKKAVEFSPENTELLTTLGLLYLQLGIYQKAFEHLGNALTYDPTNYKAILAAGSMMQTHGDFDVALTKYRVVACAVPESPPLWNNIGMCFFGKKKYVAAISCLKRANYLAPFDWKILYNLGLVHLTMQQYASAFHFLSAAINFQPKMGELYMLLAVALTNLEDIENAKRAYAEAVHLDKCNPLVNLNYAVLLYNQGEKKNALAQYQEMEKKVSLLKDNSSLEFDSEMVEMAQKLGAALQVGEALVWTKPVKDPKSKHQTTSTSKPASFQQPLGSNQALGQAMSSAAAYRTLPSGAGGTSQFTKPPSLPLEPEPAVESSPTETSEQIREK
partner: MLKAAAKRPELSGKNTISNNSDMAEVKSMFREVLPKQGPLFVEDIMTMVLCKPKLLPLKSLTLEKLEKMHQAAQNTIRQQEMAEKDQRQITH

Variants of: B1
Conditions: with bbip1_human BBIP1, A8MTZ0

Row | Variant | effect of a mutation on the interaction
1 | MAEERVATRTQFPVSTESQKPRQKKAPEFPILEKQNWLIHLHYIRKDYEACKAVIKEQLQETQGLCEYAIYVQALIFRLEGNIQESLELFQTCAVLSPQSADNLKQVARSLFLLGKHKAAIEVYNEAAKLNQKDWEISHNLGVCYIYLKQFNKAQDQLHNALNLNRHDLTYIMLGKIHLLEGDLDKAIEVYKKAVEFSPENTELLTTLGLLYLQLGIYQKAFEHLGNALTYDPTNYKAILAAGSMMQTHGDFDVALTKYRVVACAVPESPPLWNNIGMCFFGKKKYVAAISCLKRENYLAPFDWKILYNLGLVHLTMQQYASAFHFLSAAINFQPKMGELYMLLAVALTNLEDIENAKRAYAEAVHLDKCNPLVNLNYAVLLYNQGEKKNALAQYQEMEKKVSLLKDNSSLEFDSEMVEMAQKLGAALQVGEALVWTKPVKDPKSKHQTTSTSKPASFQQPLGSNQALGQAMSSAAAYRTLPSGAGGTSQFTKPPSLPLEPEPAVESSPTETSEQIREK [A296E] | with no effect
2 | MAEERVATRTQFPVSTESQKPRQKKAPEFPILEKQNWLIHLHYIRKDYEACKAVIKEQLQETQGLCEYAIYVQALIFRLEGNIQESLELFQTCAVLSPQSADNLKQVARSLFLLGKHKAAIEVYNEAAKLNQKDWEISHNLGVCYIYLKQFNKAQDQLHNALNLNRHDLTYIMLGKIHLLEGDLDKAIEVYKKAVEFSPENTELLTTLGLLYLQLGIYQKAFEHLGNALTYDPTNYKAILAAGSMMQTHGDFDVALTKYRVVACAVPESPPLWNNIGMCFFGKKKYVAAISCLKRANYLAPFDWKIEYNLGLVHLTMQQYASAFHFLSAAINFQPKMGELYMLLAVALTNLEDIENAKRAYAEAVHLDKCNPLVNLNYAVLLYNQGEKKNALAQYQEMEKKVSLLKDNSSLEFDSEMVEMAQKLGAALQVGEALVWTKPVKDPKSKHQTTSTSKPASFQQPLGSNQALGQAMSSAAAYRTLPSGAGGTSQFTKPPSLPLEPEPAVESSPTETSEQIREK [L307E] | with no effect
3 | MAEERVATRTQFPVSTESQKPRQKKAPEFPILEKQNWLIHLHYIRKDYEACKAVIKEQLQETQGLCEYAIYVQALIFRLEGNIQESLELFQTCAVLSPQSADNLKQVARSLFLLGKHKAAIEVYNEAAKLNQKDWEISHNLGVCYIYLKQFNKAQDQLHNALNLNRHDLTYIMLGKIHLLEGDLDKAIEVYKKAVEFSPENTELLTTLGLLYLQLGIYQKAFEHLGNALTYDPTNYKAILAAGSMMQTHGDFDVALTKYRVVACAVPESPPLWNNIGMCFFGKKKYVAAISCLKRANYLAPFDWKILYNLGLVHLTMQQYASAFHFLSAAINFQPKMGELYMLLAVALTNLEDIENAKRAYEEAVHLDKCNPLVNLNYAVLLYNQGEKKNALAQYQEMEKKVSLLKDNSSLEFDSEMVEMAQKLGAALQVGEALVWTKPVKDPKSKHQTTSTSKPASFQQPLGSNQALGQAMSSAAAYRTLPSGAGGTSQFTKPPSLPLEPEPAVESSPTETSEQIREK [A362E] | with no effect
4 | MAEERVATRTQFPVSTESQKPRQKKAPEFPILEKQNWLIHLHYIRKDYEACKAVIKEQLQETQGLCEYAIYVQALIFRLEGNIQESLELFQTCAVLSPQSADNLKQVARSLFLLGKHKAAIEVYNEAAKLNQKDWEISHNLGVCYIYLKQFNKAQDQLHNALNLNRHDLTYIMLGKIHLLEGDLDKAIEVYKKAVEFSPENTELLTTLGLLYLQLGIYQKAFEHLGNALTYDPTNYKAILAAGSMMQTHGDFDVALTKYRVVACAVPESPPLWNNIGMCFFGKKKYVAAISCLKRANYLAPFDWKILYNLGLVHLTMQQYASAFEFLSAAINFQPKMGELYMLLAVALTNLEDIENAKRAYAEAVHLDKCNPLVNLNYAVLLYNQGEKKNALAQYQEMEKKVSLLKDNSSLEFDSEMVEMAQKLGAALQVGEALVWTKPVKDPKSKHQTTSTSKPASFQQPLGSNQALGQAMSSAAAYRTLPSGAGGTSQFTKPPSLPLEPEPAVESSPTETSEQIREK [H325E] | with no effect
5 | MAEERVATRTQFPVSTESQKPRQKKAPEFPILEKQNWLIHLHYIRKDYEACKAVIKEQLQETQGLCEYAIYVQALIFRLEGNIQESLELFQTCAVLSPQSADNLKQVARSLFLLGKHKAAIEVYNEAAKLNQKDWEISHNLGVCYIYLKQFNKAQDQLHNALNLNRHDLTYIMLGKIHLLEGDLDKAIEVYKKAVEFSPENTELLTTLGLLYLQLGIYQKAFEHLGNALTYDPTNYKAILAAGSMMQTHGDFDVALTKYRVVACAVPESPPLWNNIGMCFFGKKKYVAAISCLKRANYLAPFDWKILYNLGLVHLTMQQCASAFHFLSAAINFQPKMGELYMLLAVALTNLEDIENAKRAYAEAVHLDKCNPLVNLNYAVLLYNQGEKKNALAQYQEMEKKVSLLKDNSSLEFDSEMVEMAQKLGAALQVGEALVWTKPVKDPKSKHQTTSTSKPASFQQPLGSNQALGQAMSSAAAYRTLPSGAGGTSQFTKPPSLPLEPEPAVESSPTETSEQIREK [Y320C] | disrupting interaction strength
6 | MAEERVATRTQFPVSTESQKPRQKKAPEFPILEKQNWLIHLHYIRKDYEACKAVIKEQLQETQGLCEYAIYVQALIFRLEGNIQESLELFQTCAVLSPQSADNLKQVARSLFLLGKHKAAIEVYNEAAKLNQKDWEISHNLGVCYIYLKQFNKAQDQLHNALNLNRHDLTYIMLGKIHLLEGDLDKAIEVYKKAVEFSPENTELLTTLGLLYLQLGIYQKAFEHLGNALTYDPTNYKAILAAGSMMQTHGDFDVALTKYRVVACAVPESPPLWNNIGMCFFGKKKYVAAISCLKRANYLAPFDWKILYNLGLVALTMQQYASAFHFLSAAINFQPKMGELYMLLAVALTNLEDIENAKRAYAEAVHLDKCNPLVNLNYAVLLYNQGEKKNALAQYQEMEKKVSLLKDNSSLEFDSEMVEMAQKLGAALQVGEALVWTKPVKDPKSKHQTTSTSKPASFQQPLGSNQALGQAMSSAAAYRTLPSGAGGTSQFTKPPSLPLEPEPAVESSPTETSEQIREK [H314A] | with no effect
7 | MAEERVATRTQFPVSTESQKPRQKKAPEFPILEKQNWLIHLHYIRKDYEACKAVIKEQLQETQGLCEYAIYVQALIFRLEGNIQESLELFQTCAVLSPQSADNLKQVARSLFLLGKHKAAIEVYNEAAKLNQKDWEISHNLGVCYIYLKQFNKAQDQLHNALNLNRHDLTYIMLGKIHLLEGDLDKAIEVYKKAVEFSPENTELLTTLGLLYLQLGIYQKAFEHLGNALTYDPTNYKAILAAGSMMQTHGDFDVALTKYRVVACAVPESPPLWNNIGMCFFGKKKYVAAISCLKRANYLAPFDWKILYNLGLVHLTMQQYASAFHFLSAAINFQPKMGELYMLLAVALTNLEDIANAKRAYAEAVHLDKCNPLVNLNYAVLLYNQGEKKNALAQYQEMEKKVSLLKDNSSLEFDSEMVEMAQKLGAALQVGEALVWTKPVKDPKSKHQTTSTSKPASFQQPLGSNQALGQAMSSAAAYRTLPSGAGGTSQFTKPPSLPLEPEPAVESSPTETSEQIREK [E355A] | with no effect

The remaining lines, values ahead:

Row | effect of a mutation on the interaction | Variant
8 | with no effect | MAEERVATRTQFPVSTESQKPRQKKAPEFPILEKQNWLIHLHYIRKDYEACKAVIKEQLQETQGLCEYAIYVQALIFRLEGNIQESLELFQTCAVLSPQSADNLKQVARSLFLLGKHKAAIEVYNEAAKLNQKDWEISHNLGVCYIYLKQFNKAQDQLHNALNLNRHDLTYIMLGKIHLLEGDLDKAIEVYKKAVEFSPENTELLTTLGLLYLQLGIYQKAFEHLGNALTYDPTNYKAILAAGSMMQTHGDFDVALTKYRVVACAVPESPPLWNNIGMCFFGKKKYVAAISCLKRANYLAPFDWKILYNLGLVHLTMQQYASAFHFLSAAINFQPKMGELYMLLAVALTNLEDIENAKRAYAEAVHLDKCNPLVNLNYAVLLYNQGEKKNALAQYQEMEKKVSLLKDNSSLEFDSEMVEMAQKLGAALQVGEALVWTKPVKDPKSKHQTTSTSKPASFQQPLGSNQALGQAMSSAAAYRTLESGAGGTSQFTKPPSLPLEPEPAVESSPTETSEQIREK [P482E]
9 | with no effect | MAEERVATRTQFPVSTESQKPRQKKAPEFPILEKQNWLIHLHYIRKDYEACKAVIKEQLQETQGLCEYAIYVQALIFRLEGNIQESLELFQTCAVLSPQSADNLKQVARSLFLLGKHKAAIEVYNEAAKLNQKDWEISHNLGVCYIYLKQFNKAQDQLHNALNLNRHDLTYIMLGKIHLLEGDLDKAIEVYKKAVEFSPENTELLTTLGLLYLQLGIYQKAFEHLGNALTYDPTNYKAILAAGSMMQTHGDFDVALTKYRVVACAVPESPPLWNNIGMCFFGKKKYVAAISCLKRANYLAPFDWKILYNLGLVHLTMQQYASAFHFLSAAINFQPKMGELYMLLAVALTNLEDIENAKRAYAEAVHLDKCNPLVNLNYAVLLYNQGEKKNALAQYQEMEKKVSLLKDNSSLEFDAEMVEMAQKLGAALQVGEALVWTKPVKDPKSKHQTTSTSKPASFQQPLGSNQALGQAMSSAAAYRTLPSGAGGTSQFTKPPSLPLEPEPAVESSPTETSEQIREK [S415A]
10 | with no effect | MAEERVATRTQFPVSTESQKPRQKKAPEFPILEKQNWLIHLHYIRKDYEACKAVIKEQLQETQGLCEYAIYVQALIFRLEGNIQESLELFQTCAVLSPQSADNLKQVARSLFLLGKHKAAIEVYNEAAKLNQKDWEISHNLGVCYIYLKQFNKAQDQLHNALNLNRHDLTYIMLGKIHLLEGDLDKAIEVYKKAVEFSPENTELLTTLGLLYLQLGIYQKAFEHLGNALTYDPTNYKAILAAGSMMQTHGDFDVALTKYRVVACAVPESPPLWNNIGMCFFGKKKYVAAISCLKRANYLAPFDWKILYNLGLVHLTMQQYASAFHFLSAAINFQPKMGELYMLLAVALTNLEDIENAKRAYAEAVHEDKCNPLVNLNYAVLLYNQGEKKNALAQYQEMEKKVSLLKDNSSLEFDSEMVEMAQKLGAALQVGEALVWTKPVKDPKSKHQTTSTSKPASFQQPLGSNQALGQAMSSAAAYRTLPSGAGGTSQFTKPPSLPLEPEPAVESSPTETSEQIREK [L367E]
11 | with no effect | MAEERVATRTQFPVSTESQKPRQKKAPEFPILEKQNWLIHLHYIRKDYEACKAVIKEQLQETQGLCEYAIYVQALIFRLEGNIQESLELFQTCAVLSPQSADNLKQVARSLFLLGKHKAAIEVYNEAAKLNQKDWEISHNLGVCYIYLKQFNKAQDQLHNALNLNRHDLTYIMLGKIHLLEGDLDKAIEVYKKAVEFSPENTELLTTLGLLYLQLGIYQKAFEHLGNALTYDPTNYKAILAAGSMMQTHGDFDVALTKYRVVACAVPESPPLWNNIGMCFFGKKKYVAAISCLKRANYLAPFDWKILYNLGLVHLTMQQYASAFHFLSAAINFQPKMGELYMLLAVALTNLEDIENAKRAYAEAVHLDKCNPLVNLNYAVLLYNQGEKKNALAQYQEMEKKVSLLKDNSSLEFDSEMVEMAQKLGAALQVGEALVWTKPVKDPKSKHQTTSTSKPASFQQPLGSNQALGQAMSSAAAYRTLPSGAGGTSEFTKPPSLPLEPEPAVESSPTETSEQIREK [Q490E]
12 | with no effect | MAEERVATRTQFPVSTESQKPRQKKAPEFPILEKQNWLIHLHYIRKDYEACKAVIKEQLQETQGLCEYAIYVQALIFRLEGNIQESLELFQTCAVLSPQSADNLKQVARSLFLLGKHKAAIEVYNEAAKLNQKDWEISHNLGVCYIYLKQFNKAQDQLHNALNLNRHDLTYIMLGKIHLLEGDLDKAIEVYKKAVEFSPENTELLTTLGLLYLQLGIYQKAFEHLGNALTYDPTNYKAILAAGSMMQTHGDFDVALTKYRVVACAVPESPPLWNNIGMCFFGKKKYVAAISCLKRANYLAPFDWKILYNLGLVHLTMQQYASAFHFLSAAINFQPKMGELYMLLAVALTNLEDIENAKRAYAEAVALDKCNPLVNLNYAVLLYNQGEKKNALAQYQEMEKKVSLLKDNSSLEFDSEMVEMAQKLGAALQVGEALVWTKPVKDPKSKHQTTSTSKPASFQQPLGSNQALGQAMSSAAAYRTLPSGAGGTSQFTKPPSLPLEPEPAVESSPTETSEQIREK [H366A]

From IntAct's records for PubMed 29039417
